Source: article PMC8318374

Target: GFP-CC-tet-KLC1E^CTD (de novo-designed coiled-coil tetramer between GFP and KLC1E^CTD) (mouse)
Assay: cross-linking

stoichiometry N: 4
Substance: GFP-CC-tet-KLC1E^CTD (de novo-designed coiled-coil tetramer between GFP and KLC1E^CTD)
